# Reference: patent US5559213A, “Polyethylene-protein conjugates” (Hoffmann-La Roche Inc., priority 1995, dated 1996)
# Experiments:
# [1] = system: rIL-1alpha induction of interleukin-6; assay: Inhibition of rIL-1alpha induction of interleukin-6 in mice (pharmacodynamics); assay type: in vivo
# Procedure: The pharmacodynamics of IL-1ra protein was evaluated in vivo by the ability of the IL-1ra to inhibit rIL-1alpha induction of interleukin-6. Serum from mice treated with rIL-1alpha contain high levels of IL-6, [McIntosh et al., Immunol. 143: 162, (1989)]. The administration of unmodified IL-1ra together with IL-1alpha (0 hr time point) inhibits the induction of IL-6. This test system was used to compare the pharmacodynamic properties of unmodified and PEG IL-1ra. […] Three hours later, serum samples were collected. IL-6 levels (units) were determined using a modification of an IL-6 assay that has been previously described [Van Snick et al., Proc. Natl. Acad. Sci. USA 83:9679, (1986)]. In the IL.-6 assay, B9 hybridoma cells were treated with two fold serial dilutions of the test sera in 96-well microtiter plates. Following a 3 day incubation at 37° C. in a humidified atmosphere comprised of 5% CO2 and 95% air, the wells were pulsed with 0.5 uCi of tritiated thymidine and incubated for an additional 18 hr. The cells were then harvested onto glass fiber filters and the level of tritiated thymidine incorporation was determined by scintillation counting. IL-6 activity is expressed as U/ml. IL-6 units are defined as the inverse of the serum dilution which produces half-maximal tritiated thymidine incorporation compared to a reference standard.
# [2] = Pharmacokinetic profile: serum IL-1ra levels in mice after subcutaneous administration; assay type: in vivo; conditions: for Serum Concentration of IL-1ra: Table D2 (pegylated as in Example 6a), 100 ug s.c.; for Serum Level of IL-1ra: Table D4 (reagent of Example 11a); for Serum IL-1ra: Table D5 (reagent of Example 18a)
# Procedure: To determine the pharmacokinetic profile of PEG-IL-1ra species, C57BF/6 mice were administered 100 ug of […] or pegylated IL-1ra species subcutaneously. Serum samples were collected after 1, 2, 3, 4 and 6 hours from mice that received unmodified IL-1ra and after 2, 4, 8, 10, and 24 hours from mice that received PEG-IL-1ra. The serum levels were determined in the EL4 membrane binding assay described in Example 6.
# [3] = biological target: T1, IL-1 receptor on EL-4 membranes (Mus musculus, UniProt P13504); assay: IL-1 radioreceptor competition binding assay
# T1 construct: incubated at varying concentrations with EL-4 membranes; endogenous in cells; host or cells: EL-4 cell membranes
# T1 sequence (P13504 20-576): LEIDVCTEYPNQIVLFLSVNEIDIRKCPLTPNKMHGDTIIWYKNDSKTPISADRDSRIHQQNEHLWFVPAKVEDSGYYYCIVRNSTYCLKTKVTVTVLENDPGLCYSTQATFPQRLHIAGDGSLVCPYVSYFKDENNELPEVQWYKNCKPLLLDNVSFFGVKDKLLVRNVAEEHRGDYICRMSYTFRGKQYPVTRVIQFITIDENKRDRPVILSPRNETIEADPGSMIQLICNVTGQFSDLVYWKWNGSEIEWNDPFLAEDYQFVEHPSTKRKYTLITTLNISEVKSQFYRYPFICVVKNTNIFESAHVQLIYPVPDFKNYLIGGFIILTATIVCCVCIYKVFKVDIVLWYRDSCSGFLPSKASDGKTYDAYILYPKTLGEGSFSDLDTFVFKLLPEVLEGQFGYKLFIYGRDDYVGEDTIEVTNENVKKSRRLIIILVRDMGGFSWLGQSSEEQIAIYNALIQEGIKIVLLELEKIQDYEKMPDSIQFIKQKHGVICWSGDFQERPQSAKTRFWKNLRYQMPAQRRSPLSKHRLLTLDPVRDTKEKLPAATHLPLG
# Procedure: Pegylated IL-1ra was purified from the reaction mixture using hydrophobic exchange chromatography (Bio-Rad; HRLC MP7 HlC). A linear gradient with decreasing salt concentrations from 0.43 to 0.0M (NH4)2 SO4 in 50 mM sodium phosphate pH 7.0 in 20 minutes was used to separate pegylated IL-1ra and unmodified IL-1ra. Aliquots of fractions were evaluated by SDS-PAGE and pooled fractions were assayed in an IL-1 radioreceptor competition binding assay. [Kilian et al. J. Immunol., 136, 4509, (1986)]. Briefly, IL-1ra and PEG-IL-1ra were incubated at varying concentrations with EL-4 membranes for 30 min at 37° C. The [^125 I]IL-1 alpha was then added and the incubation continued for 30 min. The assay was terminated by vacuum filtration and the collection of cell bound [^125 I]IL-1 on filter plates. The concentration of IL-1ra or PEG-IL-1ra that inhibits binding of [^125l]IL- 1 by 50% (IC50) was determined graphically. […] The pegylated IL-1ra mixture retained its ability-to bind to the IL-1 receptor on EL-4 membranes within a factor 2 to 3 fold relative to the unmodified II1-1ra.
substance,measurement,setting,value
"IL-1ra: Interleukin-1 receptor antagonist, unmodified; apparent molecular weight 19 kD by SDS-PAGE",inhibition of the IL-1 response,"[1]; Example 12, within 6 hours of administration",less than 50%
same,IL-6,"[1]; Table D1 (reagent of Example 5), 200 ug s.c. 0 hr prior to 0.2 ug rIL-1 alpha, IL-1 alone 28852 U/ml",772 Units/ml
same,IL-6,"[1]; Table D1 (reagent of Example 5), 200 ug s.c. 6 hr prior to 0.2 ug rIL-1 alpha, IL-1 alone 28852 U/ml",8361 Units/ml
same,IL-6,"[1]; Table D1 (reagent of Example 5), 200 ug s.c. 24 hr prior to 0.2 ug rIL-1 alpha, IL-1 alone 28852 U/ml",22525 Units/ml
same,IL-6,"[1]; Table D1 (reagent of Example 5), 200 ug s.c. 48 hr prior to 0.2 ug rIL-1 alpha, IL-1 alone 28852 U/ml",18485 Units/ml
same,IL-6,"[1]; Table D1 (reagent of Example 5), 200 ug s.c. 72 hr prior to 0.2 ug rIL-1 alpha, IL-1 alone 28852 U/ml",13220 Units/ml
same,IL-6,"[1]; Table D3 (reagent of Example 11), 0 hr prior to IL-1 administration, IL-1 alone 27283 u/ml",4789 Units/ml
same,IL-6,"[1]; Table D3 (reagent of Example 11), 6 hr prior to IL-1 administration, IL-1 alone 27283 u/ml",15324 Units/ml
same,IL-6,"[1]; Table D3 (reagent of Example 11), 24 hr prior to IL-1 administration, IL-1 alone 27283 u/ml",24841 Units/ml
same,IL-6,"[1]; Table D3 (reagent of Example 11), 48 hr prior to IL-1 administration, IL-1 alone 27283 u/ml",16348 Units/ml
same,IL-6,"[1]; Table D3 (reagent of Example 11), 72 hr prior to IL-1 administration, IL-1 alone 27283 u/ml",12067 Units/ml
same,IL-6,"[1]; Table D6 (reagent of Example 18), 0 hr prior to 0.05 ug rIL-1 alpha, IL-1 alone 9203 units/ml",521 Units/ml
same,IL-6,"[1]; Table D6 (reagent of Example 18), 6 hr prior to 0.05 ug rIL-1 alpha, IL-1 alone 9203 units/ml",2334 Units/ml
same,IL-6,"[1]; Table D6 (reagent of Example 18), 24 hr prior to 0.05 ug rIL-1 alpha, IL-1 alone 9203 units/ml",13486 Units/ml
same,IL-6,"[1]; Table D6 (reagent of Example 18), 48 hr prior to 0.05 ug rIL-1 alpha, IL-1 alone 9203 units/ml",16577 Units/ml
same,IL-6,"[1]; Table D6 (reagent of Example 18), 72 hr prior to 0.05 ug rIL-1 alpha, IL-1 alone 9203 units/ml",12800 Units/ml
same,Serum Concentration of IL-1ra,[2]; 1 hr after administration,400
same,Serum Concentration of IL-1ra,[2]; 2 hr after administration,130
same,Serum Concentration of IL-1ra,[2]; 4 hr after administration,15
same,Serum Concentration of IL-1ra,[2]; 6 hr after administration,16
same,Serum Concentration of IL-1ra,"[2]; time not given, line between 2 and 4 hr",40
same,Serum Level of IL-1ra,[2]; 1 hr after administration,0.22 µg/mL
same,Serum Level of IL-1ra,[2]; 2 hr after administration,0.033 µg/mL
same,Serum Level of IL-1ra,[2]; 3 hr after administration,0.013 µg/mL
same,Serum Level of IL-1ra,[2]; 4 hr after administration,0.0053 µg/mL
same,Serum Level of IL-1ra,[2]; 6 hr after administration,0.0015 µg/mL
same,Serum IL-1ra,[2]; 1 hr after administration,580 ng/mL
same,Serum IL-1ra,[2]; 2 hr after administration,75 ng/mL
same,Serum IL-1ra,[2]; 3 hr after administration,30 ng/mL
same,Serum IL-1ra,[2]; 4 hr after administration,30 ng/mL
same,Serum IL-1ra,[2]; 6 hr after administration,8 ng/mL
same,IC50,"[3]; Example 6, Table VI: IL-1ra conjugated with reagent of Example 5, label = apparent molecular weight",2.0 ng/mL
same,IC50,"[3]; Example 6A, Table VII: IL-1ra conjugated with reagent of Example 5a, label = apparent molecular weight (kD)",1.6 ng/mL
same,IC50,"[3]; Example 12, Table XII: IL-1ra pegylated with reagent of Example 11, label = apparent molecular weight (kD)",2.0 ng/mL
same,IC50,"[3]; Example 12A, Table XIII: IL-1ra pegylated with reagent of Example 11a, label = apparent molecular weight (kD)",0.8 ng/mL
same,IC50,"[3]; Example 19, Table XIV: IL-1ra pegylated with reagent of Example 18, label = apparent molecular weight (kD)",2.0 ng/mL
same,IC50,"[3]; Example 19A, Table XV: IL-1ra pegylated with reagent of Example 18a, label = apparent molecular weight (kD)",1.5 ng/mL
same,IC50,"[3]; Example 26, Table XVIII: IL-1ra pegylated with reagent of Example 23, label = apparent molecular weight (kD)",2.0 ng/mL
same,IC50,"[3]; Example 29, Table XX: IL-1ra pegylated with reagent of Example 28, label = molecular weight (kD)",1.4 ng/mL
same,IC50,"[3]; Example 32, Table XXII: rIL-1ra conjugated with reagent of Example 31, label = apparent molecular weight (kD)",1.5 ng/mL
same,IC50,"[3]; Example 38, Table XXV: rIL-1ra conjugated with the reagent described in Example 35 (so in the source), label = apparent molecular weight (kD)",1.0 ng/mL
same,IC50,[3]; IC50 of IL-1ra in this assay (general statement),1 to 2.0 ng/mL
